The values below come from patent US20220306729A1 (published 2022).

Positions count from the first letter of the chain named.

First the molecules themselves.
B1: Z032 (BRA112_24) (antibody, V domains shown)
VH: EVQLLESGGRLVQPGGSLTLSCAASGFPFSTYAMSWLRQAPGKGLEWVSGITGDSGSTYYAASVKGRFTISRDNSKNTLYLQMNSLTADDTAVYYCAKDRLHSGLGELFSYWGQGTLVTVSS
VL: DIQMTQSPSTLSASVGDRVNITCRASQSINQWLAWYQQKPGKAPKFLMYKASTLETGVPSRFSGSGSGTEFTLTISSLQPDDFATYYCQHYFSYPWTFGQGTKVEIK
B2: Z004 (MEX18_89) (antibody, V domains shown)
VH: EVQLLESGGGLVQPGGSLRLTCATSGFTFRDYAMSWVRQAPGKGLEWVSSYSGIDDSTYYADSVKGRFTISRDNSKSTLSLHMNSLRAEDSALYFCAKDRGPRGVGELFDSWGQGTLVTVSS
VL: DIQMTQSPSTLSASVGDRVTITCRASQSISKWLAWYQQKPGKAPKLLIYTTSTLKSGVPSRFSGSGSGTEFTLTISSLQPDDFATYYCQHFYSVPWTFGQGTKVEIK
notes: also called biotin-Z004 (biotinylated form)
B3: Z021 (MEX84_p4-23) (antibody, V domains shown)
VH: QVQLQESGPGLVKPSETLSLTCTVSGGSIDTYYWSWIRQTPGKGLEWIGCFYYSVDNHFNPSLESRVTISVDTSKNQFSLKMTSMTASDTAVYYCARNQPGGRAFDYWGPGTLVTVSS
VL: EIVLTQSPATLSLSPGQRATLSCRASQSVSNYFAWYQQKPGQAPRLLIYDTSKRATGTPARFSGSGSGTDFTLTISSLEPEDFAVYYCQERNNWPLTWTFGLGTKVEIK
B4: Z044 (BRA138_46) (antibody, V domains shown)
VH: QVQLVQSGAEVKKPGASVKVSCKASGYTFTSTYIHWVRQAPGQGLEWMGIINPSSSNTNYAQKFQGRVTMTRDTSTSTVYMELSSLRSEDTAVYYCARDFGGYSSSSVSDAFDIWGQGTMVTVSS
VL: QSALTQPASVSGSPGQSITISCTGTSSDVGSFNLVSWYQQHPGKAPKLIIYEVSKRPSGVSNRFSGSKSGNTASLTISGLQAEDEVHYYCCSYAGSSRFVFGTGTKVTVL
B5: Z054 (BRA138_94) (antibody, V domains shown)
VH: QLQLQESGPRLVKPSETLFLTCTVSGDSISSSSYFWGWIRQPPGKGLEWIGSISYSGSTYYNPSLKSRVTISVDTSKNQFSLKLSSVTAADTVVYYCAKHLYSSSWNIGSSFDSWGPGTLVTVSS
VL: EIVLTQSPATLSLSPGERATLSCRASQSVSIYLAWYQQKPGQAPRLLIYDASSRATGIPARFSGSGSGTDFTLTISSLEPEDFAVYYCQQRSNWPVYTFGQGTKVEIK
B6: Z040 (BRA12_81) (antibody, V domains shown)
VH: EVQLLESGGGLVQPGGSLRLSCAASGFTFSTYAMSWVRQAPGKGLEWVSAISGSGRSTYYADSVKGRFTISRDNSKNTLYLQMNSLRGEDTAVYYCAKSSGGHNWNYVDYYYGMDVWGQGTTVTVSS
VL: DIQLTQSPSFLSASVGDRVTITCRASQGISSYLAWYQQKPGKAPKLLIYAASTLQSGVPSRFSGSGSGTEFTLTISSLQPEDFATYYCQQLNSYPVTFGPGTKVDIK
B7: Z001 (MEX18_21) (antibody, V domains shown)
VH: EVQLLESGGGLVQPGGSRRLSCATSGFSFDTYAMSWLRQAPGKGLEWVSSFSGLDDSTYYADSVKGRFTISRDNSKNTLYLQMNSLRAEDTAIYYCAKDRGPRGIGELFDFWGQGTLVTVSS
VL: B2 VL with K31R, T50K, G57E, Y92H
B8: Z028 (MEX84_p4-53) (antibody, V domains shown)
VH: EVQLLESGGGLVQPGGSLRLSCAASGFTFSAYAMSWVRQAPGKGLEWVSSINGHSDSTYFADSVKGRFTISRDNSKNTLYLQMNSLRAEDTALYYCAKDRLREGIGELFHSWGQGTLVTVSS
VL: B1 VL with V15I, N20T, N30T, Q31P, M48I, K50Q, A51T, T53I, T56S, F92H
B9: Z038 (BRA12_2) (antibody, V domains shown)
VH: EVQLLESGGGLVQPGGSLRLSCEASGFTFSNYAMNWVRQAPGKGLEWVSTLGATDNSGDSTYYVESAKGRFTISRDNSKNTLYLQMNSLRVEDTAVYFCAKDRTGNIGAGTGYFDKWGQGTLVTVSS
VL: DIQMTQSPSTLSASVGDRVTITCRASHRISGWLAWYQQKPGKAPKLLIYQASGLESGVPSRFSGSGYGTEFTLTISSLQADDFATYYCQQYNNYPWTFGQGTKVEIK
notes: also called BRA12_02
B10: Z006 (MEX105_42) (antibody, V domains shown)
VH: EVQLLESGGGLVQPGGSLRLSCAASGFTFKNYAMAWVRQAPGKGLEWVSLLYNSEESTYYADSVKGRFTISRDNSKNTLFLQMNRLRVEDTAVYFCVRDRSNGWSSINLWGRGTLVTVSS
VL: DIQMTQSPSTLSASVGDRVTMTCRASQTISGWLAWYQQKPGKAPKLLIYQASRLESGIPSRFSGSGSGTEFTLTISSLQPDDVATYYCQQYSTFWTFGLGTKVEIK
B11: Z010 (MEX105_88) (antibody, V domains shown)
VH: EVQLLESGGGLVQPGGSLRLSCAASGFTFSNYAMAWVRQAPGKGLEWVSLIYSGDDSTYYADFVKGRFTISRHNSKNTLSLQMNSLRAEDTAIYYCVKDRGTGWSSIVHWGQGTLVTVSS
VL: B10 VL with M21I, G31N, R53S, I58V, V83F, F94Y, L99Q
B12: Z035 (BRA112_71) (antibody, V domains shown)
VH: EVQLLESGGGLIQPGGSLRLSCAASGFTFSSYAMSWVRQAPGKGLEWVSGISGSGGASDNGASRYYADSVKGRFSISRDNSKNTVYLQMNSLRAEDTAVYYCAKDRLSGGFGELFQKWGQGTLVTVSS
VL: B1 VL with S12A, N20T, S28N, Q31S, M48I, T56S, V58A, F92Y, W96Y
B13: Z031 (BRA112_46) (antibody, V domains shown)
VH: EVQLLESGGGLVQPGGSLRLSCVASGFTFGSYGMAWVRQAPGKGLEWISSISSIDPSTYYADSVKGRFTVSRDNSENTLYLHMSSLKVEDTAVYFCAKDRLNGGFGELFASWGQGTLVTVSS
VL: DIQMTQSPSTLSASVGDSVTITCRASQSISSWLAWYQQKPGKAPKFLIHKASSLESGIPSRFSGSGSGTEFTLTINNLQPDDFATYYCQHYHSYPWTFGQGTKVEIK

The first assay concerns the target T1, ZIKV envelope domain III ([..]), polyhistidine-AviTag, made in HEK-293-6E cells (Zika virus (KJ776791)).
T1 construct: also called ZEDIII; ZIKV EDIII
Put plainly: ELISA on ZIKV EDIII (Table A).
In turn, B1 yielded an EC50 of 19.5 ng/mL.

The next assay has as its target ZIKV E protein on infectious virus, 2015 Puerto Rican PRVABC59 strain (Zika virus, strain PRVABC59). The assay can be described thus: cell-based or functional assay.
As for B2, the “IC50, plaque reduction neutralization test (PRNT)” value was 2.2 ng/mL.

As for B3, the “IC50, plaque reduction neutralization assay (PRNT)” value was found to be 4 ng/mL.

The next assay deals with ZIKV E protein (African strain MR766) on reporter viral particles (Zika virus, strain MR766, UniProt Q32ZE1 291-790). The assay can be described thus: cell-based or functional assay.
ZIKV E protein (African strain MR766) on reporter viral particles, sequence (Q32ZE1 291-790 limits assumed): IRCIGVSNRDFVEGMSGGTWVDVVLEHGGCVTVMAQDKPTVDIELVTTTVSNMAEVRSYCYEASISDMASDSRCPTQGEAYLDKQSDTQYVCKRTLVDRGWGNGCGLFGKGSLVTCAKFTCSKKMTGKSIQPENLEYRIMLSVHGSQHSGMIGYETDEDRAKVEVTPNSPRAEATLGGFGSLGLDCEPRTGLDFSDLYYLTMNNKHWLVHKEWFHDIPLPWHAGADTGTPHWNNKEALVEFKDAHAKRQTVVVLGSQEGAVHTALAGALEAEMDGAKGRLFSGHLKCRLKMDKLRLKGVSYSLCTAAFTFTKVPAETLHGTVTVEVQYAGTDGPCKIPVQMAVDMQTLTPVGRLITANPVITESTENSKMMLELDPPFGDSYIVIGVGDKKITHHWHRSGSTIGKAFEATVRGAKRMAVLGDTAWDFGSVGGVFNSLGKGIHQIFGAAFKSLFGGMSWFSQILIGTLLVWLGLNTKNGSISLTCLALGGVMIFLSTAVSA
Take B3: the “IC50, ZIKV RVPs” value was found to be 0.7 ng/mL.

The target of the next assay is DENV1 E protein (strain PUO-359) on reporter viral particles or infectious virus (Dengue virus 1, strain PUO-359). The assay can be described thus: cell-based or functional assay.
For B2, the “IC50, DENV1 luciferase RVPs” value was 1.6 ng/mL and the “IC50, flow cytometry using authentic DENV1” value came to 16.4 ng/mL.

Take B3: the “IC50, DENV1 neutralization (flow cytometry)” value is 10.1 ng/mL.

The target in another assay is T2, DENV1 EDIII, polyhistidine-AviTag, made in HEK-293-6E cells (Dengue virus 1 (NC_001477)).
T2 construct: also called EDIII of DENV1
T2 sequence (P17763 577-674, tags left off): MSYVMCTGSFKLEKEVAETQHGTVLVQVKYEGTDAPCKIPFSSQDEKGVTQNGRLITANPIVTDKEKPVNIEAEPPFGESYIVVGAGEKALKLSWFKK
Put plainly: ELISA on EDIII (Table A).
Regarding B4, the binding result was “no binding”.

B5: the binding result is on record as “no binding”.

Regarding B6, the binding result was “no binding”.

The target of another assay is WNV EDIII, polyhistidine-AviTag (West Nile virus). Put plainly: ELISA on EDIII (Table A).
As for B4, the binding result is given as “no binding”.

As for B5, the binding result is listed as “no binding”.

As to B6, the binding result is “no binding”.

The next assay has as its target T3, DENV4 EDIII, polyhistidine-AviTag (Dengue virus 4, UniProt P09866 576-673).
T3 construct: domain: EDIII
Put plainly: cross-reactivity ELISA on EDIII proteins.
As for B2, the binding result is “no binding (tested: 10 µg/ml)”.

With B7, the binding result is recorded as “no binding (tested: 10 µg/ml)”.

As for B8, the binding result is “no binding (tested: 10 µg/ml)”.

With B9, the binding result is given as “no binding (tested: 10 µg/ml)”.

B10: the binding result is on record as “no binding (tested: 10 µg/ml)”.

For the molecule B11, the binding result was “no binding (tested: 10 µg/ml)”.

Turning to B12, the binding result is reported as “no binding (tested: 10 µg/ml)”.

For the molecule B13, the binding result is listed as “no binding (tested: 10 µg/ml)”.

The target of another assay is T4, DENV3 EDIII, polyhistidine-AviTag (Dengue virus 3, UniProt Q6YMS4 575-672).
T4 construct: domain: EDIII
The assay can be described thus: cross-reactivity ELISA on EDIII proteins.
Consider B2, for which the binding result is reported as “no binding (tested: 10 µg/ml)”.

For the molecule B7, the binding result is on record as “no binding (tested: 10 µg/ml)”.

B8: the binding result is “no binding (tested: 10 µg/ml)”.

As to B9, the binding result is listed as “no binding (tested: 10 µg/ml)”.

Turning to B10, the binding result was “no binding (tested: 10 µg/ml)”.

With B11, the binding result is “no binding (tested: 10 µg/ml)”.

Consider B12, for which the binding result is given as “no binding (tested: 10 µg/ml)”.

For B13, the binding result is recorded as “no binding (tested: 10 µg/ml)”.

The next assay has as its target WNV EDIII, polyhistidine-AviTag (West Nile virus). Put plainly: cross-reactivity ELISA on EDIII proteins.
As for B2, the binding result is “no binding (tested: 10 µg/ml)”.

Turning to B7, the binding result is on record as “no binding (tested: 10 µg/ml)”.

Take B8: the binding result is on record as “no binding (tested: 10 µg/ml)”.

B9: the binding result is reported as “no binding (tested: 10 µg/ml)”.

For B10, the binding result is “no binding (tested: 10 µg/ml)”.

For B11, the binding result is “no binding (tested: 10 µg/ml)”.

For B12, the binding result is recorded as “no binding (tested: 10 µg/ml)”.

With B13, the binding result was “no binding (tested: 10 µg/ml)”.
